This note sets out measurements from patent US20220202899A1, “COMPOSITION FOR PREVENTION OR TREATMENT OF HAIR LOSS INCLUDING HAPLN1” (HAPLNSCIENCE INC., priority 2019, published 2022).

Common to all, as to format: cell-based
Experiment [1] relates to TβRII. The experiment can be described thus: TβRII protein in human hair germinal matrix cells treated with HAPLN1 and/or HA, then TGF-β2 (Western blotting). On the procedure: Human hair germinal matrix cells were dispensed into a poly-D-lysine 6-well plate at a concentration of 5.0×10^4 per well and cultured for 24 hours. After 24 hours, the medium was removed and replaced with a new serum-free medium. HAPLN1 was treated with 25 ng/mL, HA was treated with 25 μg/mL, and after 1 hour, TGF-β2 (2 ng/mL) was treated. After 23 hours, cells were collected, a lysis buffer (25 mM Tris-HCl, 1 mM EDTA, 0.1% Triton-X100, phosphatase inhibitor, and protease inhibitor) was added, and all the cells were broken through sonication. TβRI and TβRII in the sample were measured using Western blotting. The optical density of TβRII was compared to that of GAPDH using a densitometer.
In general terms: A western blot detects proteins with antibodies after separation by electrophoresis.

Experiment [2] has as its system TβRII. In words: TβRII protein after exogenous HAPLN1 and/or HA in endogenous HAPLN1-deficient human hair germinal matrix cells. To be noted: after HAPLN1 siRNA; HAPLN1 25 ng/mL and/or HA 25 μg/mL; TGF-β2 2 ng/mL, 23 hours. The procedure:
The human hair germinal matrix cells were dispensed into a poly-D-lysine 6-well plate at a concentration of 5.0×10^4 per well and cultured for 24 hours. After 24 hours, the medium was removed and replaced with a low-serum medium. HAPLN1 siRNA and scrambled siRNA were added at a concentration of 25 pmol per well and incubated for 24 hours. After the siRNA and the medium were all removed, the medium was replaced with a serum-free medium having HAPLN1 (25 ng/mL) or HA (25 μg/mL) added thereto, and cultured for 1 hour. TGF-β2 (2 ng/mL) was treated and incubated for 23 hours. After collecting cells, a lysis buffer (25 mM Tris-HCl, 1 mM EDTA, 0.1% Triton-X100, phosphatase inhibitor, and protease inhibitor) was added, and all the cells were broken through sonication. TβRII in the sample was measured using Western blotting. The optical density of TβRII was compared to that of GAPDH using a densitometer.

In a further experiment the test system is HAS2. In words: HAS2 protein in human hair germinal matrix cells deficient in endogenous HA (4-MU). To be noted: 4-MU-treated cells; HAPLN1 25 ng/mL; TGF-β2 2 ng/mL. On the procedure:
4-MU (4-methylumbelliferone) is an inhibitor of HA-producing hyaluronan synthase 2 (HAS2), which produces HA. In order to confirm the effect of HA produced in cells, HA production in cells was inhibited using 4-MU.
The human hair germinal matrix cells, in which the endogenous HA was inhibited by treating 4-MU, were dispensed into a poly-D-lysine 6-well plate at a concentration of 5.0×10^4 per well and cultured for 24 hours. After 24 hours, the medium was removed and replaced with a new serum-free medium. HAPLN1 was treated with 25 ng/mL, and after 1 hour, TGF-β2 (2 ng/mL) was treated. After 23 hours, cells were collected, a lysis buffer (25 mM Tris-HCl, 1 mM EDTA, 0.1% Triton-X100, phosphatase inhibitor, and protease inhibitor) was added, and all the cells were broken through sonication. HAS2 and TβRII in the sample were measured using Western blotting. The optical density of each of HAS2 and TβRII was compared to that of GAPDH using a densitometer.

In the next experiment the test system is p-Smad2. The experiment can be described thus: p-Smad2 in human hair germinal matrix cells stimulated with TGF-β2 (Western blotting). Particulars: HAPLN1 25 ng/mL and/or HA 25 μg/mL; TGF-β2 2 ng/mL, 1 hour. The procedure: (§1) Human hair germinal matrix cells were dispensed into a poly-D-lysine 6-well plate at a concentration of 5.0×10^4 per well and cultured for 24 hours. After 24 hours, the medium was removed and replaced with a new serum-free medium. HAPLN1 was treated with 25 ng/mL and HA with 25 μg/mL, incubated for 23 hours, and then stimulated with TGF-β2 (2 ng/mL) for 1 hour. After collecting cells, a lysis buffer (25 mM Tris-HCl, 1 mM EDTA, 0.1% Triton-X100, phosphatase inhibitor, and protease inhibitor) was added, and all the cells were broken through sonication. p-ERK1/2, p-Smad2, p-MEK1/2, and p-c-Raf in the sample were measured using Western blotting. Optical densities of p-ERK1/2, p-Smad2, p-MEK1/2, and p-c-Raf were compared to those of ERK1/2, Smad2/3, MEK1, and c-Raf using a densitometer. Here, ERK1/2, Smad2/3, MEK1, and c-Raf were used as loading controls.

A further experiment concerns p-MEK1/2. The experiment can be described thus: p-MEK1/2 in human hair germinal matrix cells stimulated with TGF-β2 (Western blotting). Particulars: HAPLN1 25 ng/mL and/or HA 25 μg/mL; TGF-β2 2 ng/mL, 1 hour. The procedure: as §1
A further experiment has as its system p-c-Raf. In words: p-c-Raf in human hair germinal matrix cells stimulated with TGF-β2 (Western blotting). Particulars: HAPLN1 25 ng/mL and/or HA 25 μg/mL; TGF-β2 2 ng/mL, 1 hour. The procedure:
as §1

The subject of experiment [3] is human dermal papilla cells. In words: Dermal papilla cell proliferating effect, CCK-8 (Example 13). To be noted: proteins 25 ng/ml, minoxidil 10 μM; TGF-β2 (2 ng/ml) present or absent. The procedure:
Human dermal papilla cells were cultured in a 37° C., 5% CO2 incubator using a dermal papilla cell proliferation medium (Promocell). When the cells were about 90% full, the cells were detached with a 0.05% Trypsin/EDTA solution and then centrifuged at 1000 rpm for 3 minutes to recover only the cells. The cells were dispensed into a 96-well plate at 2.0×10^3 per well, cultured for 24 hours, and HAPLN1, CX3CL1 and CDON were diluted to have a final concentration of 25 ng/ml in serum-free medium. After removing the existing culture medium, 200 μl of diluted HAPLN1, CX3CL1, and CDON were dispensed into each well and cultured for 1 hour. To reduce an experimental variation, 3 wells per group were treated (triplication). In addition, minoxidil, which is known to proliferate dermal papilla cells, was treated with 10 μM and set as a positive control.
In the same manner as described above, HAPLN1 (25 ng/ml), CX3CL1 (25 ng/ml), CDON (25 ng/ml) or minoxidil (10 μM), and human recombinant TGF-β2 were diluted to a final concentration of 2 ng/ml, and the medium of the group containing TGF-β2 was replaced by 200 μl. To reduce an experimental variation, 3 wells per group were treated (triplication).
After incubation for 23 hours, the plate was removed from the incubator, and 20 μl of CCK-8 (WST-8) solution was added to the plate containing the medium and the reagent per 200 μl of the medium for the reaction to be carried out at 37° C. for 1 hour.

B1: hyaluronan and proteoglycan link protein 1 (protein, UniProt P10915 16-354, looked up)
Hyaluronan and proteoglycan …: DHLSDNYTLDHDRAIHIQAENGPHLLVEAEQAKVFSHRGGNVTLPCKFYRDPTAFGSGIHKIRIKWTKLTSDYLKEVDVFVSMGYHKKTYGGYQGRVFLKGGSDSDASLVITDLTLEDYGRYKCEVIEGLEDDTVVVALDLQGVVFPYFPRLGRYNLNFHEAQQACLDQDAVIASFDQLYDAWRGGLDWCNAGWLSDGSVQYPITKPREPCGGQNTVPGVRNYGFWDKDKSRYDVFCFTSNFNGRFYYLIHPTKLTYDEAVQACLNDGAQIAKVGQIFAAWKILGYDRCDAGWLADGSVRYPISRPRRRCSPTEAAVRFVGFPDKKHKLYGVYCFRAYN
notes: extracellular matrix protein found in cartilage; stabilizes aggregates of hyaluronic acid and proteoglycans
Regarding B1, the “TβRII protein (optical density compared to GAPDH)” value with TβRII [1] (HAPLN1 25 ng/mL or HA 25 μg/mL alone, TGF-β2 2 ng/mL after 1 hour, 23 hours) was “significantly increased”. In the experiment with TβRII [1] (HAPLN1 25 ng/mL with HA 25 μg/mL, TGF-β2 2 ng/mL), the “TβRII protein, HAPLN1 treated together with HA” value is listed as “further enhanced the increase of TβRII by HA”. Moreover, the “TβRII protein in endogenous HAPLN1-deficient cells” value with TβRII [2] is “recovered”. For the same molecule, in the experiment on HAS2, the HAS2 level result is given as “recovered”. In the experiment with p-Smad2, the “phosphorylation of Smad2” value is on record as “no change”. Besides, in the experiment on p-MEK1/2, the “MEK1/2 activity (p-MEK1/2 compared to MEK1)” value was “increased activities”. Further, the “c-Raf activity (p-c-Raf compared to c-Raf)” value with p-c-Raf is reported as “increased activities”. Also, the “dermal papilla cell proliferation (absorbance at 450 nm)” value in experiment [3] was “did not proliferate dermal papilla cells or rather inhibited proliferation thereof”.
